# Assay results reported in patent US7138236.
# System: p53, unphosphorylated (recombinant full-length)
Substance,"in vitro kinase assay (32P incorporation, autoradiography)","phosphorylation site mapping (tryptic/Asp-N peptides, Edman degradation)","kinase assay of chromatographic fractions, Western blot with p53 Ser15-specific antibodies"
ATM (A-T mutated) protein purified from HeLa cell nuclear extract,several independently purified ATM preparations were consistently found to phosphorylate p53 with high efficiency,the sites of phosphorylation correspond to p53 residues Ser-15 and Thr-18,–
ATR (FRP-1) purified from HeLa nuclear extract,–,–,this residue is also phosphorylated by a kinase activity associated with ATR
